The data set relates to Escherichia coli TOP10. Kind of data set: shrunken log2 fold change of peptide-encoding DNA abundance (4.5 h post-induction vs induction); higher = less antimicrobial activity (less host growth inhibition). The settings on record: time post-induction: 4.5 h; library: site-saturation at positions 5, 18, 19, 20.
For RRIRSRPPRLPRPRPRPKATPRP, the “shrunken log2 fold change” value came to 0.7.
Next, RRIRVRPPRLPRPRPRPIPDPRP: -0.0692.
Turning to RRIRMRPPRLPRPRPRPVSWPRP, the “shrunken log2 fold change” value was determined as 0.553.
Next, RRIRNRPPRLPRPRPRPVHFPRP: 0.0937; RRIRMRPPRLPRPRPRPENEPRP: 2.96.
The figure for RRIRLRPPRLPRPRPRPGICPRP is 0.126; for RRIRVRPPRLPRPRPRPCPYPRP it is -1.14.
The figure for RRIRERPPRLPRPRPRPKQIPRP is 0.169.
As to RRIRERPPRLPRPRPRPEARPRP, the “shrunken log2 fold change” value is 0.164.
The figure for RRIRFRPPRLPRPRPRPWFDPRP is -0.101.
The figure for RRIRPRPPRLPRPRPRPSMQPRP is -0.29; for RRIRVRPPRLPRPRPRPINDPRP it is 0.0664.
Consider RRIRCRPPRLPRPRPRPAMFPRP, for which the “shrunken log2 fold change” value was -0.0946.
For RRIRCRPPRLPRPRPRPAVGPRP, the “shrunken log2 fold change” value is 0.155.
Regarding RRIRMRPPRLPRPRPRPCGKPRP, the “shrunken log2 fold change” value was found to be 0.0716.
Next, RRIRCRPPRLPRPRPRPKNTPRP: -0.339; RRIRTRPPRLPRPRPRPGSLPRP: -0.0994; RRIRFRPPRLPRPRPRPRKSPRP: 0.123.
Next, RRIRIRPPRLPRPRPRPVPTPRP: 0.0576; RRIRARPPRLPRPRPRPMHSPRP: -0.106; RRIRYRPPRLPRPRPRPLSWPRP: -0.0279.
Regarding RRIRVRPPRLPRPRPRPGVAPRP, the “shrunken log2 fold change” value stood at 0.377.
Next, RRIRYRPPRLPRPRPRPYMKPRP: -0.122; RRIRPRPPRLPRPRPRPKRVPRP: 0.0499.
Next, RRIRKRPPRLPRPRPRPQYEPRP: 0.0265; RRIRSRPPRLPRPRPRPEIHPRP: 0.0186; RRIRLRPPRLPRPRPRPRAYPRP: 0.0155.
Take RRIRWRPPRLPRPRPRPSGPPRP: the “shrunken log2 fold change” value was determined as 0.114.
The figure for RRIRHRPPRLPRPRPRPAFYPRP is -0.332; for RRIRERPPRLPRPRPRPVWTPRP it is -0.00115.
The figure for RRIRYRPPRLPRPRPRPMRYPRP is -0.114; for RRIRDRPPRLPRPRPRPMDNPRP it is -0.0115; for RRIRFRPPRLPRPRPRPDECPRP it is -0.399.
RRIRFRPPRLPRPRPRPTMAPRP: the “shrunken log2 fold change” value turned out to be 0.185.
The figure for RRIRKRPPRLPRPRPRPCISPRP is 0.0183; for RRIRVRPPRLPRPRPRPIQEPRP it is -0.169.
Turning to RRIRRRPPRLPRPRPRPQWCPRP, the “shrunken log2 fold change” value was found to be 0.00425.
The figure for RRIRDRPPRLPRPRPRPWWNPRP is -0.0921.
Next, RRIRNRPPRLPRPRPRPEIKPRP: 0.101; RRIRGRPPRLPRPRPRPNSPPRP: -0.0974.
RRIRKRPPRLPRPRPRPWLMPRP: the “shrunken log2 fold change” value came out at 0.0931.
The figure for RRIRIRPPRLPRPRPRPDLNPRP is -0.211.
RRIRRRPPRLPRPRPRPLEYPRP: the “shrunken log2 fold change” value is -0.326.
Regarding RRIRMRPPRLPRPRPRPQVEPRP, the “shrunken log2 fold change” value was -0.00107.
The figure for RRIRKRPPRLPRPRPRPEQQPRP is 1.43; for RRIRERPPRLPRPRPRPKCEPRP it is 0.0279.
With RRIRSRPPRLPRPRPRPYIWPRP, the “shrunken log2 fold change” value was -0.108.
Next, RRIRSRPPRLPRPRPRPQETPRP: 0.0728; RRIRVRPPRLPRPRPRPYYSPRP: -0.235.
For the sequence RRIRFRPPRLPRPRPRPVGLPRP, the “shrunken log2 fold change” value came to 0.0115.
Regarding RRIRYRPPRLPRPRPRPWTSPRP, the “shrunken log2 fold change” value is -0.039.
The figure for RRIRKRPPRLPRPRPRPIWQPRP is 0.163; for RRIRARPPRLPRPRPRPGWAPRP it is 0.72; for RRIRYRPPRLPRPRPRPKRAPRP it is 0.28.
For RRIRGRPPRLPRPRPRPTCLPRP, the “shrunken log2 fold change” value was found to be 0.576.
The figure for RRIRHRPPRLPRPRPRPAANPRP is -0.0763; for RRIRNRPPRLPRPRPRPVMVPRP it is -0.0209; for RRIRERPPRLPRPRPRPVTAPRP it is -0.00991.
The figure for RRIRKRPPRLPRPRPRPDNYPRP is -0.153.
Next, RRIRCRPPRLPRPRPRPHIEPRP: -0.856.
In the case of RRIRFRPPRLPRPRPRPQAPPRP, the “shrunken log2 fold change” value worked out at 0.0778.
Take RRIRARPPRLPRPRPRPKFAPRP: the “shrunken log2 fold change” value worked out at 0.306.
Next, RRIRRRPPRLPRPRPRPLSAPRP: 0.444; RRIRMRPPRLPRPRPRPCIIPRP: -0.798.
Next, RRIRARPPRLPRPRPRPTEIPRP: -0.0477; RRIRIRPPRLPRPRPRPEIEPRP: -0.0562; RRIRNRPPRLPRPRPRPICPPRP: -0.0189.
RRIRDRPPRLPRPRPRPQSKPRP: the “shrunken log2 fold change” value was -0.0457.
With RRIRFRPPRLPRPRPRPMAGPRP, the “shrunken log2 fold change” value is -0.111.
As to RRIRIRPPRLPRPRPRPYGIPRP, the “shrunken log2 fold change” value was -0.329.
RRIRFRPPRLPRPRPRPSCGPRP: the “shrunken log2 fold change” value is -0.235.
For the sequence RRIRERPPRLPRPRPRPRMWPRP, the “shrunken log2 fold change” value stood at 0.302.
Next, RRIRLRPPRLPRPRPRPNDSPRP: -0.0215.
In the case of RRIRDRPPRLPRPRPRPQTQPRP, the “shrunken log2 fold change” value came out at 0.372.
In the case of RRIRVRPPRLPRPRPRPLPKPRP, the “shrunken log2 fold change” value was found to be 0.361.
With RRIRFRPPRLPRPRPRPCQFPRP, the “shrunken log2 fold change” value is -0.227.
On to RRIRPRPPRLPRPRPRPHVSPRP, for which the “shrunken log2 fold change” value came out at 0.00841.
The figure for RRIRTRPPRLPRPRPRPCSTPRP is -0.11.
RRIRWRPPRLPRPRPRPSMEPRP: the “shrunken log2 fold change” value was determined as 0.0397.
Next, RRIRWRPPRLPRPRPRPWSWPRP: 1.16; RRIRCRPPRLPRPRPRPKRYPRP: -0.0053.
Next, RRIRMRPPRLPRPRPRPTNKPRP: 0.111; RRIRSRPPRLPRPRPRPVMIPRP: -0.0753.
For the sequence RRIRWRPPRLPRPRPRPECEPRP, the “shrunken log2 fold change” value was found to be 0.912.
Regarding RRIRRRPPRLPRPRPRPWGRPRP, the “shrunken log2 fold change” value worked out at 0.101.
The figure for RRIRNRPPRLPRPRPRPFLFPRP is -0.301; for RRIRTRPPRLPRPRPRPINVPRP it is -0.509.
Next, RRIRHRPPRLPRPRPRPYFYPRP: -0.881.
As for RRIRWRPPRLPRPRPRPFFEPRP, the “shrunken log2 fold change” value is -0.0187.
Next, RRIRYRPPRLPRPRPRPGMEPRP: -0.0379.
The figure for RRIRSRPPRLPRPRPRPHSSPRP is 0.171; for RRIRARPPRLPRPRPRPLQLPRP it is 0.179; for RRIRPRPPRLPRPRPRPPPCPRP it is 0.384.
On to RRIRCRPPRLPRPRPRPTILPRP, for which the “shrunken log2 fold change” value is -0.646.
The figure for RRIRTRPPRLPRPRPRPNIMPRP is -0.526; for RRIRFRPPRLPRPRPRPPDLPRP it is -0.329.
Next, RRIRWRPPRLPRPRPRPQTAPRP: 0.282; RRIRTRPPRLPRPRPRPQYLPRP: -0.436; RRIRDRPPRLPRPRPRPWHDPRP: 0.0315.
Take RRIRARPPRLPRPRPRPWEMPRP: the “shrunken log2 fold change” value worked out at 0.00132.
The figure for RRIRQRPPRLPRPRPRPRKLPRP is 0.0501.
Next, RRIRGRPPRLPRPRPRPQCYPRP: -0.0337; RRIRARPPRLPRPRPRPAFQPRP: 0.174.
Next, RRIRHRPPRLPRPRPRPPWMPRP: 0.197; RRIRPRPPRLPRPRPRPVKYPRP: -0.303.
Consider RRIRCRPPRLPRPRPRPNDWPRP, for which the “shrunken log2 fold change” value was -0.166.
The figure for RRIRMRPPRLPRPRPRPIAWPRP is 0.201; for RRIRQRPPRLPRPRPRPKMCPRP it is -0.002; for RRIRRRPPRLPRPRPRPINEPRP it is -0.0486.
As for RRIRGRPPRLPRPRPRPPAMPRP, the “shrunken log2 fold change” value turned out to be 1.23.
For RRIRGRPPRLPRPRPRPRMCPRP, the “shrunken log2 fold change” value was found to be 0.197.
Next, RRIRVRPPRLPRPRPRPNEYPRP: -0.487; RRIRGRPPRLPRPRPRPSMAPRP: 0.749; RRIRIRPPRLPRPRPRPLSGPRP: -0.0874.
Next, RRIRRRPPRLPRPRPRPHVYPRP: -0.341; RRIRCRPPRLPRPRPRPQQYPRP: -0.709; RRIRPRPPRLPRPRPRPTIAPRP: -0.0457.
Next, RRIRNRPPRLPRPRPRPHAWPRP: -0.0119; RRIRTRPPRLPRPRPRPAREPRP: 0.44.
Regarding RRIRNRPPRLPRPRPRPGERPRP, the “shrunken log2 fold change” value is -0.0647.
Regarding RRIRLRPPRLPRPRPRPSAQPRP, the “shrunken log2 fold change” value came out at 0.0425.
Next, RRIRKRPPRLPRPRPRPKVLPRP: 0.0605; RRIRLRPPRLPRPRPRPFLRPRP: -0.429; RRIRIRPPRLPRPRPRPNNKPRP: -0.85.
Regarding RRIRKRPPRLPRPRPRPIIHPRP, the “shrunken log2 fold change” value was -0.0792.
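Also: peptides expressed intracellularly from a pBAD plasmid library in pooled LB shake-flask culture, induced with 0.3% L-arabinose, DNA abundance read by NGS, three biological replicates, DESeq2 with apeglm shrinkage.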
